These results are taken from paper PMC8872791, “MadR mediates acyl CoA-dependent regulation of mycolic acid desaturation in mycobacteria” (Proceedings of the National Academy of Sciences of the …, 2022).

Series [1] addresses T1, MadR (Mycobacterium tuberculosis H37Rv) (UniProt P9WMD9).
T1 sequence: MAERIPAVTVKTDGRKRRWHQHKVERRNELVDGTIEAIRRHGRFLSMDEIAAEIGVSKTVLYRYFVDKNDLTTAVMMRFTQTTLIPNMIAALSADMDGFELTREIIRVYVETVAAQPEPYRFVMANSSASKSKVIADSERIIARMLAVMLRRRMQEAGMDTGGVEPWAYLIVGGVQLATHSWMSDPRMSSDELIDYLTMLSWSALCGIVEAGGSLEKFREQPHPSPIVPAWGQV
Put plainly: EMSA. A general note: Mobility shift assays separate free from complexed probe on a gel.

For the next series, the target named is T2, MadR (Mycobacterium tuberculosis H37Rv, UniProt P9WMD9 1-234).
T2 sequence: T1 sequence
As to the kind of experiment: EMSA. Conditions: protein: recombinant; tags: His-tag implied (pET28a, cobalt IMAC); chain copies: 2; blunt.

For the molecule “GGGCCGAACATACTCACCCGGATCGGAGGGCCGAGGACACGGTCGAACGAGGGGCATGACCCGGTGCGGGGCTTCTTGCACTCGGCATAGGCGAGTGCTAAGAATAACGTTGGCACTCGCGACCGGTGAGTGCTAGGTCGGGACGGTGAGGCCAGGCCCGTCGTCGCAGCGAGTGGCAGCGAGGACAACTTGAGCCGTCCGTCGCGGGCACTGCGCCCGGCCAGCGTAAGTAGCGGGGTTGCCGTCACCCGGTGACCCCCGTTTCATCCCCGATCCGGAGGAATCACTTCGCA (double strand) [hsp60 promoter]”, the binding result in series [1] was “no binding”.

B1: desA2 promoter -36/+14 (dsDNA)
DNA 1: TTCACGAAATCTGTGTATGCGAGTTACAGTTACCGCATGGCACAGAAACC
DNA 2: GGTTTCTGTGCCATGCGGTAACTGTAACTCGCATACACAGATTTCGTGAA
For the molecule B1, the binding result with MadR was “binds”.

B2: desA1 promoter -19/+31 (dsDNA)
DNA 1: CAGTTATCTGTGTCTAATGGTTGCAGTCAATATATCTGTGTCTCTCGGTA
DNA 2: TACCGAGAGACACAGATATATTGACTGCAACCATTAGACACAGATAACTG
On to B2, for which the binding result in the series with MadR was “binds”.
